The values that follow come from paper PMC3156286 (Journal of molecular biology, 2011).

The data set concerns the molecule itself. The experiment in a line: SEC. For orientation: SEC sorts molecules by how far they enter the pores of the column.

B1: full length Nhp2p (natural protein, S. cerevisiae, UniProt P32495 1-156, looked up)
chain: MGKDNKEHKESKESKTVDNYEARMPAVLPFAKPLASKKLNKKVLKTVKKASKAKNVKRGVKEVVKALRKGEKGLVVIAGDISPADVISHIPVLCEDHSVPYIFIPSKQDLGAAGATKRPTSVVFIVPGSNKKKDGKNKEEEYKESFNEVVKEVQAL
For the protein B1, the “stoichiometry N” value is 2.

A word on the stoichiometry N: it is a count of units in the complex or per binding partner.
